How the values were obtained:
human Axl = target: T1, human Axl (Homo sapiens, UniProt P30530); experiment: BA3011 binding to human Axl in TME and normal tissue conditions
T1 sequence (P30530 26-894): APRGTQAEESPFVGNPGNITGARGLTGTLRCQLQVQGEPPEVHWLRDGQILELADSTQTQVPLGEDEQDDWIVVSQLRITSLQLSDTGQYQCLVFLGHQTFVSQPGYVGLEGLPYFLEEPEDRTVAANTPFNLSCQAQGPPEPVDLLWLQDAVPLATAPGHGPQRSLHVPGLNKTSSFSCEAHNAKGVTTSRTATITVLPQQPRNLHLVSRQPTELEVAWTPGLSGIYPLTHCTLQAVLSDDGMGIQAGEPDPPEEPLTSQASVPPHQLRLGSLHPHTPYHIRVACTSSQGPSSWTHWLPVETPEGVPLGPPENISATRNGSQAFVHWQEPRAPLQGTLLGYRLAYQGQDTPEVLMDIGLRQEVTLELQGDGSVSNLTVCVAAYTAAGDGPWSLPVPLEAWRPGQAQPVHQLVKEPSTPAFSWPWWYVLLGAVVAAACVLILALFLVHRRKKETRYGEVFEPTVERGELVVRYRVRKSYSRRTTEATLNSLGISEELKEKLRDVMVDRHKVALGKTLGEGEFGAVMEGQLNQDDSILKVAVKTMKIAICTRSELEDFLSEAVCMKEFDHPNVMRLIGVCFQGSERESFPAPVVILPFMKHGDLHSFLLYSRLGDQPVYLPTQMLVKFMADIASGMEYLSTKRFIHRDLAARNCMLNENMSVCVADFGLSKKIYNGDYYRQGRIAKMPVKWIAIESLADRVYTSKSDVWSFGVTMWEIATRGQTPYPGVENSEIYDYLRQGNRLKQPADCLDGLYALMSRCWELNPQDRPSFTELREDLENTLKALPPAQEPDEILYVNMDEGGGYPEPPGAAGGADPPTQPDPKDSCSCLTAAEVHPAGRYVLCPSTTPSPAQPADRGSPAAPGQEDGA

[1] = tested on: Axl expressing human cancer cell lines; experiment: BA3011 in vitro functional assays of cellular toxicity; assay type: cell-based
[2] = tested on: human tumor cell line derived xenograft tumors expressing Axl; experiment: BA3011 anti-tumor efficacy in xenograft mouse models; assay type: in vivo
Procedure: Tumor cell lines representing NSCLC (LCLC103H), prostate (DU145), and pancreatic tumor (MIAPaCa2) were tested in this in vivo mouse model system. Once tumors were established at a size of about 150 mm3, animals were treated with BA3011 at the indicated dose levels following the indicated schedule. BA3011 induced greater than 70% TGI in 4 out of 7 models tested, as shown on FIG. 17D.

[3] = at the dose and schedules tested

B1: Mecbotamab vedotin (conjugate, chains of the INN, looked up)
VH: EVQLVQSGAEVKKPGATVKISCKVSGYSFWGATMNWIRQPPGKGLEWIGLIKPSNGGTSYNQKFKGRVTISADKSISTAYLQWSSLKASDTAMYYCAHGHYESYEAMDYWGQGTLVTVSS
VL: DIQMTQSPSSLSASVGDRVTITCKASQDVVSAVAWYQQKPGQAPRLLIYWQDTRHTGVPSRFSGSGSGTEFTLTISSLQPDDFATYYCQEHFSPPLTFGQGTKVEIK
modifications: MC-vc-PAB-MMAE conjugate
binding to human Axl (human Axl; conditions mimicking the TME (pH 6.0-7.0)): high affinity and specificity
binding to human Axl (human Axl; conditions mimicking the normal tissue environment (pH 7.3-7.4)): reduced binding
cytotoxicity ([1]; normal conditions): reduced cytotoxicity
cellular toxicity ([1]; tumor conditions): induce cellular toxicity
body weight loss [2, 3]: did not induce body weight loss
clinical signs of toxicity [2, 3]: no other clinical signs of toxicity were noted
tumor growth inhibition (TGI) relative to control ([2]; in 4 out of 7 models tested): greater than 70%

— US20250276075A1, “METHODS OF TREATING AXL-EXPRESSING CANCERS WITH ANTI-AXL ANTIBODIES, ANTIBODY FRAGMENTS AND THEIR IMMUNOCONJUGATES” (BIOATLA, INC., priority 2020, published 2025)
